# Assay results reported in PMC7528653.
# Like-named read-outs stand apart in the source and are kept apart here.
# T1: MSL2 (Drosophila melanogaster, UniProt P50534 1-773)
# T1 sequence: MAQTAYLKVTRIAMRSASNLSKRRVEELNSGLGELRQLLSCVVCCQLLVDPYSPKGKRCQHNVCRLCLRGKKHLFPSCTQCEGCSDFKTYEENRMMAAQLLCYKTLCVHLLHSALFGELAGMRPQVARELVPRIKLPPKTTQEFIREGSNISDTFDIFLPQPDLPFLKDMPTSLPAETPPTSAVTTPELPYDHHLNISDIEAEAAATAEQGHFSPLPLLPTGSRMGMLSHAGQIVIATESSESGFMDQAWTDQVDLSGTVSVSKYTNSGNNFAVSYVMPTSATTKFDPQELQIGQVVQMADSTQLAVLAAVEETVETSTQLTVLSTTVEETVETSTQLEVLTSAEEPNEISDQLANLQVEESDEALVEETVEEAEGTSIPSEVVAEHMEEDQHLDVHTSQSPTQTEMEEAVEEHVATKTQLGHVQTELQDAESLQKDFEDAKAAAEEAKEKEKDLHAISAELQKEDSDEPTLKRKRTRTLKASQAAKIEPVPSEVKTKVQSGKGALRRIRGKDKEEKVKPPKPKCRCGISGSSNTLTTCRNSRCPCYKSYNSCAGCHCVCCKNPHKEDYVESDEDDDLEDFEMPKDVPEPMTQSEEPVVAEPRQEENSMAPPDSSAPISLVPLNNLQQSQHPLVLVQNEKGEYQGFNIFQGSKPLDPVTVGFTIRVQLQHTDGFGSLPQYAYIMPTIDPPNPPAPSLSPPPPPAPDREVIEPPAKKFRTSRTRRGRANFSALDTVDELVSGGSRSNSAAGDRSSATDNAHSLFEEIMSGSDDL
# T2: MSL1 (Drosophila melanogaster, UniProt P50535 1-1039)
# T2 sequence: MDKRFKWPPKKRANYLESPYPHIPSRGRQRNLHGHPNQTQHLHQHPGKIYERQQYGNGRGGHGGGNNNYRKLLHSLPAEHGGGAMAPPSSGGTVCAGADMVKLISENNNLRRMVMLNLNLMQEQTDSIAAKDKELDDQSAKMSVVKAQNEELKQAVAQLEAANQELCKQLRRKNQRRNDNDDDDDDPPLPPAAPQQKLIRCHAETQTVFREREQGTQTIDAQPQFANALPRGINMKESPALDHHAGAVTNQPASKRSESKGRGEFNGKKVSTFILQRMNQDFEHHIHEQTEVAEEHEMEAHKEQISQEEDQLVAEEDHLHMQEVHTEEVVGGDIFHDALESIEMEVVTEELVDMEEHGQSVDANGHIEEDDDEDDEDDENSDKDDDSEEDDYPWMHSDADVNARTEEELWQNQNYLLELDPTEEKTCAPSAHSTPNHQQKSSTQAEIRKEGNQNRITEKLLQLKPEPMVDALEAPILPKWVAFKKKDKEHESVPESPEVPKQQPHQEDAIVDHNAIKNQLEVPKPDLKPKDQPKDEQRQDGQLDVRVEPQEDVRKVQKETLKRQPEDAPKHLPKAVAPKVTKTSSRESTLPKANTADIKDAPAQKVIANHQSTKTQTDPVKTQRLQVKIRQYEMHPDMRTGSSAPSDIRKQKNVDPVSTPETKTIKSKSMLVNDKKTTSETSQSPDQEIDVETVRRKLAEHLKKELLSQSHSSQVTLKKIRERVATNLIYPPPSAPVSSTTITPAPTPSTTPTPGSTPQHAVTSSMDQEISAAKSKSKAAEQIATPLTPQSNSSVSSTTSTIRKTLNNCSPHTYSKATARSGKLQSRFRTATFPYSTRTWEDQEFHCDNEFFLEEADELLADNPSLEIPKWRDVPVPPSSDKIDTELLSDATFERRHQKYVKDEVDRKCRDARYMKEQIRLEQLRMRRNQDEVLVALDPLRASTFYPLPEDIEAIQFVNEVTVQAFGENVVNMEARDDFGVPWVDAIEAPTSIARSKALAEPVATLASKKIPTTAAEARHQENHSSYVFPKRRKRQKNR
# Columns and labels:
# Experiment in all cases: UV crosslinking
# [1] = target: T3, DCCcore (MSL1-MSL2-MSL3-MOF) (Drosophila melanogaster, UniProt P50535;P50534;P50536;O02193 1-1039;1-773;1-512;1-827)
# T3 sequence (P50536 whole entry, chain 3 of 2): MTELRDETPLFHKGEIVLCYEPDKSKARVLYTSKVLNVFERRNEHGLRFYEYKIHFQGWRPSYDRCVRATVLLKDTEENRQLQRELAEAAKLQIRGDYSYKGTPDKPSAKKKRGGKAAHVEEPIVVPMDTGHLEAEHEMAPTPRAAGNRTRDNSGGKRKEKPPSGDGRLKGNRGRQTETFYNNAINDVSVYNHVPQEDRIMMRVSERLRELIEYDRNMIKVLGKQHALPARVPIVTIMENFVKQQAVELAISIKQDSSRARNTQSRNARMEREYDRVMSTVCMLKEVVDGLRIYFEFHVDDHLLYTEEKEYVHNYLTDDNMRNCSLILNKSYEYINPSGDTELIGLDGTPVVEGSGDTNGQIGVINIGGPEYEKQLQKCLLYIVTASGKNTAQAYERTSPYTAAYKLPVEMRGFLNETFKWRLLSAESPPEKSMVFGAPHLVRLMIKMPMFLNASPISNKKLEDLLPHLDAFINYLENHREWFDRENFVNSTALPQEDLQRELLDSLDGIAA
# T3 sequence (O02193 whole entry, chain 4 of 2): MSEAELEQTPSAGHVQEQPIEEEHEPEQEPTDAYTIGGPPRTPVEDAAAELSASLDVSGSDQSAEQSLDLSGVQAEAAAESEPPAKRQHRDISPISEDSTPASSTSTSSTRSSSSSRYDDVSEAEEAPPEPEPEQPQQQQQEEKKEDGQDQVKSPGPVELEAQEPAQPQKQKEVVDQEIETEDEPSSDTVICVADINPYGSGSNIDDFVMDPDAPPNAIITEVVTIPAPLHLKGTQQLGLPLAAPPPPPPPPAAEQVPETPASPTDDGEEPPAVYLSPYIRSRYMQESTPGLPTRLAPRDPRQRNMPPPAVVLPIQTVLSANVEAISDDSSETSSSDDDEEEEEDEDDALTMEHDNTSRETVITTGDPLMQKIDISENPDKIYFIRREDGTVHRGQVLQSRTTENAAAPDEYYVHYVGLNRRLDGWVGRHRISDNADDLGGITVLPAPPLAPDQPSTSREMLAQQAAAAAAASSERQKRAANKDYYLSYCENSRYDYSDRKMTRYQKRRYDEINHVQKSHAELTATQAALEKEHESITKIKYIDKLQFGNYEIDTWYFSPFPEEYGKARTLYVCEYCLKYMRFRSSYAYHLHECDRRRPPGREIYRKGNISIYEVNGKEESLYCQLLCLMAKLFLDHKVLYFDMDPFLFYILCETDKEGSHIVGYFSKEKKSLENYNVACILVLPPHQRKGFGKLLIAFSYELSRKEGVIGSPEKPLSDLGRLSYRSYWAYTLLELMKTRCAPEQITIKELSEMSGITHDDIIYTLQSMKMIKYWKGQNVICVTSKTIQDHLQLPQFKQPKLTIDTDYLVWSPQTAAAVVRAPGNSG
# [2] = target: T1, MSL2
# [3] = target: T2, MSL1
# [4] = target: T3, DCCcore (MSL1-MSL2-MSL3-MOF); remark: listed apart in the source
Binder,binding result [1],binding result [2],binding result [3],binding result [4]
UGGGUAACGUUUUACGCGCCUU (structured_RNA) [roX2 SL7-3'],binds,binds,binds,–
AUUAAGCAAAUAUAUAUGCAUAUAU (structured_RNA) [roX2 SL7-Loop],–,–,–,no binding
